To fix the notation:
B1: Calmodulin-binding transcription activator 3 (Arabidopsis thaliana (Mouse-ear cress)), Q8GSA7 (parent)
chain: MAEARRFSPVHELDVGQILSEARHRWLRPPEICEILQNYQRFQISTEPPTTPSSGSVFMFDRKVLRYFRKDGHNWRKKKDGKTVKEAHERLKAGSVDVLHCYYAHGQDNENFQRRSYWLLQEELSHIVFVHYLEVKGSRVSTSFNRMQRTEDAARSPQETGDALTSEHDGYASCSFNQNDHSNHSQTTDSASVNGFHSPELEDAESAYNQHGSSTAYSHQELQQPATGGNLTGFDPYYQISLTPRDSYQKELRTIPVTDSSIMVDKSKTINSPGVTNGLKNRKSIDSQTWEEILGNCGSGVEALPLQPNSEHEVLDQILESSFTMQDFASLQESMVKSQNQELNSGLTSDRTVWFQGQDMELNAISNLASNEKAPYLSTMKQHLLHGALGEEGLKKMDSFNRWMSKELGDVGVIADANESFTQSSSRTYWEEVESEDGSNGHNSRRDMDGYVMSPSLSKEQLFSINDFSPSWAYVGCEVVVFVTGKFLKTREETEIGEWSCMFGQTEVPADVISNGILQCVAPMHEAGRVPFYVTCSNRLACSEVREFEYKVAESQVFDREADDESTIDILEARFVKLLCSKSENTSPVSGNDSDLSQLSEKISLLLFENDDQLDQMLMNEISQENMKNNLLQEFLKESLHSWLLQKIAEGGKGPSVLDEGGQGVLHFAASLGYNWALEPTIIAGVSVDFRDVNGWTALHWAAFFGRERIIGSLIALGAAPGTLTDPNPDFPSGSTPSDLAYANGHKGIAGYLSEYALRAHVSLLSLNDKNAETVEMAPSPSSSSLTDSLTAVRNATQAAARIHQVFRAQSFQKKQLKEFGDKKLGMSEERALSMLAPKTHKSGRAHSDDSVQAAAIRIQNKFRGYKGRKDYLITRQRIIKIQAHVRGYQFRKNYRKIIWSVGVLEKVILRWRRKGAGLRGFKSEALVEKMQDGTEKEEDDDFFKQGRKQTEDRLQKALARVKSMVQYPEARDQYRRLLNVVNDIQESKVEKALENSEATCFDDDDDLIDIEALLEDDDTLMLPMSSSLWTS

From IntAct's records for PubMed 19122675 come the findings set out here.

The variants in the experiment derive from B1. The settings on record: with calm5_soltu PCM5, Q7DMN9.
With K907E, the “effect of a mutation on the interaction” value is recorded as “disrupting interaction”.
